Values joined by “and” are separate entries in the source; they are usually repeats but may differ in a detail not shown here. Equal entries are not always repeated.
Molecular target: AAV9 capsid (of the vector AAV9.CAG.GFP / AAV9 test virus) (AAV9)
Assay: cell-based or functional assay

With “IVIG (intravenous immunoglobulin), a purified mix of IgG obtained from thousands of healthy donors” the AAV9 NAb50 Titer in HEK293 cells (fresh IVIG sample) (reciprocal dilution) was 160 and 320.

Reference: patent US20240016956A1
